Measured values reported in patent publication US20060257938A1, “Method of screening for drugs that block ligand binding to a lipid binding protein” (priority 2005, published 2006).
Positions count from the first letter of the chain named. Where “and” joins values, the source holds several entries; their conditions need not be identical. Equal entries are not always repeated.

B1: 34K, 72A (protein, listed as Rattus norvegicus)
chain: AFDGTWKVDRNENYEKFMEKMGINVVKRKLGAHKNLKLTITQEGNKFTVKESSNFRNIDVVFELGVDFAYSAADGTELTGTWTMEGNKLVGKFKRVDNGKELIAVREISGNELIQTYTYEGVEAKRIFKKE
modifications: PEPTIDE (1)...(131) wild-type rat intestinal fatty acid binding protein
B2: 36E2, 72A (protein, listed as Rattus norvegicus)
chain: B1 chain with K34D, L36E
modifications: PEPTIDE (1)...(131) wild-type rat intestinal fatty acid binding protein
B3: 36A, 72A (protein, listed as Rattus norvegicus)
chain: B1 chain with K34D, L36A
modifications: PEPTIDE (1)...(131) wild-type rat intestinal fatty acid binding protein
B4: 36F1, 72A (protein, listed as Rattus norvegicus)
chain: B1 chain with K34D, L36F
modifications: PEPTIDE (1)...(131) wild-type rat intestinal fatty acid binding protein
B5: 36H1, 72A (protein, listed as Rattus norvegicus)
chain: B1 chain with K34D, L36H
modifications: PEPTIDE (1)...(131) wild-type rat intestinal fatty acid binding protein
B6: 34P, 72A (protein, listed as Rattus norvegicus)
chain: B1 chain with K34P
modifications: PEPTIDE (1)...(131) wild-type rat intestinal fatty acid binding protein
B7: 34V, 72A (protein, listed as Rattus norvegicus)
chain: B1 chain with K34V
modifications: PEPTIDE (1)...(131) wild-type rat intestinal fatty acid binding protein
B8: 34Y, 72A (protein, listed as Rattus norvegicus)
chain: B1 chain with K34Y
modifications: PEPTIDE (1)...(131) wild-type rat intestinal fatty acid binding protein
B9: 36D1, 72A (protein, listed as Rattus norvegicus)
chain: B1 chain with K34D, L36D
modifications: PEPTIDE (1)...(131) wild-type rat intestinal fatty acid binding protein
B10: 34N, 72A (protein, listed as Rattus norvegicus)
chain: B1 chain with K34N
modifications: PEPTIDE (1)...(131) wild-type rat intestinal fatty acid binding protein
B11: 36C3, 72A (protein, listed as Rattus norvegicus)
chain: B1 chain with K34D, L36C
modifications: PEPTIDE (1)...(131) wild-type rat intestinal fatty acid binding protein
B12: 34T, 72A (protein, listed as Rattus norvegicus)
chain: B1 chain with K34T
modifications: PEPTIDE (1)...(131) wild-type rat intestinal fatty acid binding protein
B13: 34S, 72A (protein, listed as Rattus norvegicus)
chain: B1 chain with K34S
modifications: PEPTIDE (1)...(131) wild-type rat intestinal fatty acid binding protein
B14: 34R, 72A (protein, listed as Rattus norvegicus)
chain: B1 chain with K34R
modifications: PEPTIDE (1)...(131) wild-type rat intestinal fatty acid binding protein
B15: 34Q, 72A (protein, listed as Rattus norvegicus)
chain: B1 chain with K34Q
modifications: PEPTIDE (1)...(131) wild-type rat intestinal fatty acid binding protein
B16: 36G2, 72A (protein, listed as Rattus norvegicus)
chain: B1 chain with K34D, L36G
modifications: PEPTIDE (1)...(131) wild-type rat intestinal fatty acid binding protein
B17: 34W, 72A (protein, listed as Rattus norvegicus)
chain: B1 chain with K34W
modifications: PEPTIDE (1)...(131) wild-type rat intestinal fatty acid binding protein

Test: Probe fluorescence ratio response to linoleic acid relative to ADIFAB2
Format: binding
Conditions: response relative to ADIFAB2
In short: (§1)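 Each fatty acid's response was expressed relative to ADIFAB2, the rI-FABP-L72A probe, as ΔR/ΔRreference. ΔR is the change in the background-corrected two-wavelength intensity ratio R=Fλ1/Fλ2 from its analyte-free baseline R0. Emission was read near about 420-480 nm for unbound and about 495-580 nm for FFA-bound probe.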

**Q.** Which “DR/DR LA” value does the source give for B1 here?
**A.** 0.61

**Q.** With B2 as the molecule, how does the “DR/DR LA” value read?
**A.** 0.25

**Q.** Which “DR/DR LA” value does the source give for B3 here?
**A.** 0.51

**Q.** For B4, which “DR/DR LA” value is on record?
**A.** 0.67

**Q.** Which “DR/DR LA” value does the source give for B5 here?
**A.** 0.81

**Q.** Which “DR/DR LA” value does the source give for B6 here?
**A.** 0.66

**Q.** Which “DR/DR LA” value does the source give for B7 here?
**A.** 1.15

**Q.** For B8, which “DR/DR LA” value is on record?
**A.** 1.24

**Q.** Which “DR/DR LA” value does the source give for B9 here?
**A.** 0.27

**Q.** For B10, which “DR/DR LA” value is on record?
**A.** 1.16

**Q.** With B11 as the molecule, how does the “DR/DR LA” value read?
**A.** −0.36

**Q.** With B12 as the molecule, how does the “DR/DR LA” value read?
**A.** 0.64

**Q.** Which “DR/DR LA” value does the source give for B13 here?
**A.** 0.65

**Q.** With B14 as the molecule, how does the “DR/DR LA” value read?
**A.** 0.61

**Q.** With B15 as the molecule, how does the “DR/DR LA” value read?
**A.** 0.56

**Q.** Which “DR/DR LA” value does the source give for B16 here?
**A.** 1.17

**Q.** For B17, which “DR/DR LA” value is on record?
**A.** 1.34 and 1.110

Test: Probe fluorescence ratio response to oleic acid relative to ADIFAB2
Format: binding
Conditions: response relative to ADIFAB2
In short: as §1

**Q.** For B1, which “DR/DR OA” value is on record?
**A.** 0.41

**Q.** For B2, which “DR/DR OA” value is on record?
**A.** 0.20

**Q.** For B3, which “DR/DR OA” value is on record?
**A.** 0.46

**Q.** With B4 as the molecule, how does the “DR/DR OA” value read?
**A.** 0.55

**Q.** With B5 as the molecule, how does the “DR/DR OA” value read?
**A.** 0.77

**Q.** Which “DR/DR OA” value does the source give for B6 here?
**A.** 0.46

**Q.** For B7, which “DR/DR OA” value is on record?
**A.** 1.19

**Q.** For B8, which “DR/DR OA” value is on record?
**A.** 1.19

**Q.** Which “DR/DR OA” value does the source give for B9 here?
**A.** 0.20

**Q.** Which “DR/DR OA” value does the source give for B10 here?
**A.** 1.16

**Q.** Which “DR/DR OA” value does the source give for B11 here?
**A.** −0.40

**Q.** Which “DR/DR OA” value does the source give for B12 here?
**A.** 0.53

**Q.** Which “DR/DR OA” value does the source give for B13 here?
**A.** 0.58

**Q.** With B14 as the molecule, how does the “DR/DR OA” value read?
**A.** 0.44

**Q.** For B15, which “DR/DR OA” value is on record?
**A.** 0.44

**Q.** For B16, which “DR/DR OA” value is on record?
**A.** 0.97

**Q.** For B17, which “DR/DR OA” value is on record?
**A.** 1.38 and 1.210

Test: Probe fluorescence ratio response to arachidonic acid relative to ADIFAB2
Format: binding
Conditions: arachidonic acid; response relative to ADIFAB2
In short: as §1

**Q.** For B1, which “DR/DR AA” value is on record?
**A.** 0.43

**Q.** For B2, which “DR/DR AA” value is on record?
**A.** 0.24

**Q.** For B3, which “DR/DR AA” value is on record?
**A.** 0.53

**Q.** For B4, which “DR/DR AA” value is on record?
**A.** 0.66

**Q.** With B5 as the molecule, how does the “DR/DR AA” value read?
**A.** 0.76

**Q.** With B6 as the molecule, how does the “DR/DR AA” value read?
**A.** 0.46

**Q.** With B7 as the molecule, how does the “DR/DR AA” value read?
**A.** 1.22

**Q.** Which “DR/DR AA” value does the source give for B8 here?
**A.** 1.22

**Q.** Which “DR/DR AA” value does the source give for B9 here?
**A.** 0.20

**Q.** For B10, which “DR/DR AA” value is on record?
**A.** 1.19

**Q.** With B11 as the molecule, how does the “DR/DR AA” value read?
**A.** −0.22

**Q.** With B12 as the molecule, how does the “DR/DR AA” value read?
**A.** 0.61

**Q.** Which “DR/DR AA” value does the source give for B13 here?
**A.** 0.58

**Q.** With B14 as the molecule, how does the “DR/DR AA” value read?
**A.** 0.41

**Q.** Which “DR/DR AA” value does the source give for B15 here?
**A.** 0.52

**Q.** With B16 as the molecule, how does the “DR/DR AA” value read?
**A.** 1.00

**Q.** For B17, which “DR/DR AA” value is on record?
**A.** 1.31 and 1.060

Test: Probe fluorescence ratio response to palmitic acid relative to ADIFAB2
Format: binding
Conditions: response relative to ADIFAB2
In short: as §1

**Q.** Which “DR/DR PA” value does the source give for B1 here?
**A.** 0.26

**Q.** Which “DR/DR PA” value does the source give for B2 here?
**A.** 0.19

**Q.** For B3, which “DR/DR PA” value is on record?
**A.** 0.46

**Q.** With B4 as the molecule, how does the “DR/DR PA” value read?
**A.** 0.52

**Q.** For B5, which “DR/DR PA” value is on record?
**A.** 0.40

**Q.** With B6 as the molecule, how does the “DR/DR PA” value read?
**A.** 0.35

**Q.** Which “DR/DR PA” value does the source give for B7 here?
**A.** 1.11

**Q.** Which “DR/DR PA” value does the source give for B8 here?
**A.** 1.06

**Q.** For B9, which “DR/DR PA” value is on record?
**A.** 0.18

**Q.** For B10, which “DR/DR PA” value is on record?
**A.** 1.11

**Q.** With B11 as the molecule, how does the “DR/DR PA” value read?
**A.** −0.21

**Q.** For B12, which “DR/DR PA” value is on record?
**A.** 0.40

**Q.** Which “DR/DR PA” value does the source give for B13 here?
**A.** 0.43

**Q.** With B14 as the molecule, how does the “DR/DR PA” value read?
**A.** 0.30

**Q.** With B15 as the molecule, how does the “DR/DR PA” value read?
**A.** 0.36

**Q.** With B16 as the molecule, how does the “DR/DR PA” value read?
**A.** 0.55

**Q.** For B17, which “DR/DR PA” value is on record?
**A.** 0.93 and 0.920

Test: Probe fluorescence ratio response to linolenic acid relative to ADIFAB2
Format: binding
Conditions: response relative to ADIFAB2
In short: as §1

**Q.** For B1, which “DR/DR LNA” value is on record?
**A.** 1.33

**Q.** Which “DR/DR LNA” value does the source give for B2 here?
**A.** 0.23

**Q.** Which “DR/DR LNA” value does the source give for B3 here?
**A.** 0.50

**Q.** With B4 as the molecule, how does the “DR/DR LNA” value read?
**A.** 0.66

**Q.** Which “DR/DR LNA” value does the source give for B5 here?
**A.** 0.86

**Q.** Which “DR/DR LNA” value does the source give for B6 here?
**A.** 0.76

**Q.** For B7, which “DR/DR LNA” value is on record?
**A.** 1.21

**Q.** With B8 as the molecule, how does the “DR/DR LNA” value read?
**A.** 1.22

**Q.** Which “DR/DR LNA” value does the source give for B9 here?
**A.** 0.21

**Q.** For B10, which “DR/DR LNA” value is on record?
**A.** 1.18

**Q.** For B11, which “DR/DR LNA” value is on record?
**A.** −0.30

**Q.** With B12 as the molecule, how does the “DR/DR LNA” value read?
**A.** 0.67

**Q.** With B13 as the molecule, how does the “DR/DR LNA” value read?
**A.** 0.59

**Q.** For B14, which “DR/DR LNA” value is on record?
**A.** 0.47

**Q.** Which “DR/DR LNA” value does the source give for B15 here?
**A.** 0.48

**Q.** With B16 as the molecule, how does the “DR/DR LNA” value read?
**A.** 1.16

**Q.** For B17, which “DR/DR LNA” value is on record?
**A.** 1.37 and 1.130
